Sequences and labels used below:
B1: Mothers against decapentaplegic homolog 4 (Homo sapiens), Q13485 (parent)
chain: MDNMSITNTPTSNDACLSIVHSLMCHRQGGESETFAKRAIESLVKKLKEKKDELDSLITAITTNGAHPSKCVTIQRTLDGRLQVAGRKGFPHVIYARLWRWPDLHKNELKHVKYCQYAFDLKCDSVCVNPYHYERVVSPGIDLSGLTLQSNAPSSMMVKDEYVHDFEGQPSLSTEGHSIQTIQHPPSNRASTETYSTPALLAPSESNATSTANFPNIPVASTSQPASILGGSHSEGLLQIASGPQPGQQQNGFTGQPATYHHNSTTTWTGSRTAPYTPNLPHHQNGHLQHHPPMPPHPGHYWPVHNELAFQPPISNHPAPEYWCSIAYFEMDVQVGETFKVPSSCPIVTVDGYVDPSGGDRFCLGQLSNVHRTEAIERARLHIGKGVQLECKGEGDVWVRCLSDHAVFVQSYYLDREAGRAPGDAVHKIYPSAYIKVFDLRQCHRQMQQQAATAQAAAAAQAAAVAGNIPGPGSVGGIAPAISLSAAAGIGVDDLRRLCILRMSFVKGWGPDYPRQSIKETPCWIEIHLHRALQLLDEVLHTMPIADPQPLD
partner: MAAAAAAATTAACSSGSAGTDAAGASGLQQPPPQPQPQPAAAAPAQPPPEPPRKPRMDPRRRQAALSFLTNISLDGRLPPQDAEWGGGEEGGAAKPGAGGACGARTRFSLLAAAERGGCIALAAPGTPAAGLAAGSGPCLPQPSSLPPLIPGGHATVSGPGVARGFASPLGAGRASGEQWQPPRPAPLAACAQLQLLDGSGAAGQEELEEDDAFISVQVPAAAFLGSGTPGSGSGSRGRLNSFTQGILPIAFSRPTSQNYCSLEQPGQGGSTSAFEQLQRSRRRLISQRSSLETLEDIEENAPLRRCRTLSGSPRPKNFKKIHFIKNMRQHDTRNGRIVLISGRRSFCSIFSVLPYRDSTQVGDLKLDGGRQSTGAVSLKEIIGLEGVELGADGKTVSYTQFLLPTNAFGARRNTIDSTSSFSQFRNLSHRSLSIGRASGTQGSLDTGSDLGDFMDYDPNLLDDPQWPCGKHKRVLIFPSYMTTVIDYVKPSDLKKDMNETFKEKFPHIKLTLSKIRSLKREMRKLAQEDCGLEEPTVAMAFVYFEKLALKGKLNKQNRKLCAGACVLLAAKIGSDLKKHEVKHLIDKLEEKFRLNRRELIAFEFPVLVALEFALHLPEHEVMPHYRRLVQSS
B2: Mothers against decapentaplegic homolog 4 (Homo sapiens), Q13485 (parent)
chain: B1 chain
partner: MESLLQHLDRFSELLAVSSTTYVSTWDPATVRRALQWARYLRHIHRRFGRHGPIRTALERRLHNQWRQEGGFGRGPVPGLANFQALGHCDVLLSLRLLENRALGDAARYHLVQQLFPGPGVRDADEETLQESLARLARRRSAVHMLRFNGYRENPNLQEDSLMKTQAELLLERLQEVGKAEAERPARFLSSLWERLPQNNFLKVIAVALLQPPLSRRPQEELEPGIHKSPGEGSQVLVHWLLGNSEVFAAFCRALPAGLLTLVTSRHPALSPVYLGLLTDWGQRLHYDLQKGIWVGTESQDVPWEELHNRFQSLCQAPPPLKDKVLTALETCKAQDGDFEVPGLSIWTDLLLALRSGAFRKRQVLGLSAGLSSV
B3: Mothers against decapentaplegic homolog 4 (Homo sapiens), Q13485 (parent)
chain: B1 chain
partner: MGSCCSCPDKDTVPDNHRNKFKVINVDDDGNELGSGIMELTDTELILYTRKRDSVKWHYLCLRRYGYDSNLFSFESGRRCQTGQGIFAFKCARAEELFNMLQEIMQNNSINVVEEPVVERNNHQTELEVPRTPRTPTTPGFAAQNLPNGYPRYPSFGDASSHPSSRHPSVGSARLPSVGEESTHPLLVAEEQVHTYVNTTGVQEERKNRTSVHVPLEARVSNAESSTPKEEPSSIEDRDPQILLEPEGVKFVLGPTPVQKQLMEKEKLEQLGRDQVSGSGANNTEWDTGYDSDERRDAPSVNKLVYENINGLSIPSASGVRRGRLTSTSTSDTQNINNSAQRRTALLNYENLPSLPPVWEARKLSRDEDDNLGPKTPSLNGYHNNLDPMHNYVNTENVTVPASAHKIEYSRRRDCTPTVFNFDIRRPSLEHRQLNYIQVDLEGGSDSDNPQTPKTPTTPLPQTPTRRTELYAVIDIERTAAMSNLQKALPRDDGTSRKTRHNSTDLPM
B4: Mothers against decapentaplegic homolog 4 (Homo sapiens), Q13485 (parent)
chain: B1 chain
partner: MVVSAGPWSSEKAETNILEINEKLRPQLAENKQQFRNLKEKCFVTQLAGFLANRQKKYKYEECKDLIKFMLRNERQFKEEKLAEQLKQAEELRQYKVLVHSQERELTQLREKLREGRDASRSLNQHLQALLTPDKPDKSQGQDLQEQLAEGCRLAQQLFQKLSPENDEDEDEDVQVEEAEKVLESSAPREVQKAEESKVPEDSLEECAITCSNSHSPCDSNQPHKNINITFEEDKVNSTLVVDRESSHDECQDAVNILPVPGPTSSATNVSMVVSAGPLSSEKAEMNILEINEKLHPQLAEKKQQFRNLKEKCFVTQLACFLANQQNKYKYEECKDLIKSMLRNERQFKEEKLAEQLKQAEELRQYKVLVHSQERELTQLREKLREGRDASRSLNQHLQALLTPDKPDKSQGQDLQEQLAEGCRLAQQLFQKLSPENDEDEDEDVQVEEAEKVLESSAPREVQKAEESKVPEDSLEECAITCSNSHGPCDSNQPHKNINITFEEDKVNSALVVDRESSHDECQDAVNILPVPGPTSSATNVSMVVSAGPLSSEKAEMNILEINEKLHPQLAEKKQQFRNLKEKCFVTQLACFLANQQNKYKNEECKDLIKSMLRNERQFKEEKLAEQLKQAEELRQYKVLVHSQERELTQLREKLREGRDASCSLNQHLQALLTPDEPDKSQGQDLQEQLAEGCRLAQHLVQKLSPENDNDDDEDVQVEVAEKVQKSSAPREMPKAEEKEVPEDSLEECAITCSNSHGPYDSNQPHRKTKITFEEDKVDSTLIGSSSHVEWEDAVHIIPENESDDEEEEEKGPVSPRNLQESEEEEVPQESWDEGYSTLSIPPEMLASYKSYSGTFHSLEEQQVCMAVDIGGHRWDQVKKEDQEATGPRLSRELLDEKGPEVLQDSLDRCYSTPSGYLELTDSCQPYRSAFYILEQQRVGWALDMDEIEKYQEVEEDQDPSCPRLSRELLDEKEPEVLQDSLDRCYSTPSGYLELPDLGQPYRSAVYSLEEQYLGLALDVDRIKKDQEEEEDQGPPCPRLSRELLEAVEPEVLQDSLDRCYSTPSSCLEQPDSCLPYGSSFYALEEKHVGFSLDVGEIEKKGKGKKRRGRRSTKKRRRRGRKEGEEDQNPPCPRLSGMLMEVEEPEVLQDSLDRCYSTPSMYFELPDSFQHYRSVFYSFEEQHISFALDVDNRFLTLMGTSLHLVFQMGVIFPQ
B5: Mothers against decapentaplegic homolog 4 (Homo sapiens), Q13485 (parent)
chain: B1 chain
partner: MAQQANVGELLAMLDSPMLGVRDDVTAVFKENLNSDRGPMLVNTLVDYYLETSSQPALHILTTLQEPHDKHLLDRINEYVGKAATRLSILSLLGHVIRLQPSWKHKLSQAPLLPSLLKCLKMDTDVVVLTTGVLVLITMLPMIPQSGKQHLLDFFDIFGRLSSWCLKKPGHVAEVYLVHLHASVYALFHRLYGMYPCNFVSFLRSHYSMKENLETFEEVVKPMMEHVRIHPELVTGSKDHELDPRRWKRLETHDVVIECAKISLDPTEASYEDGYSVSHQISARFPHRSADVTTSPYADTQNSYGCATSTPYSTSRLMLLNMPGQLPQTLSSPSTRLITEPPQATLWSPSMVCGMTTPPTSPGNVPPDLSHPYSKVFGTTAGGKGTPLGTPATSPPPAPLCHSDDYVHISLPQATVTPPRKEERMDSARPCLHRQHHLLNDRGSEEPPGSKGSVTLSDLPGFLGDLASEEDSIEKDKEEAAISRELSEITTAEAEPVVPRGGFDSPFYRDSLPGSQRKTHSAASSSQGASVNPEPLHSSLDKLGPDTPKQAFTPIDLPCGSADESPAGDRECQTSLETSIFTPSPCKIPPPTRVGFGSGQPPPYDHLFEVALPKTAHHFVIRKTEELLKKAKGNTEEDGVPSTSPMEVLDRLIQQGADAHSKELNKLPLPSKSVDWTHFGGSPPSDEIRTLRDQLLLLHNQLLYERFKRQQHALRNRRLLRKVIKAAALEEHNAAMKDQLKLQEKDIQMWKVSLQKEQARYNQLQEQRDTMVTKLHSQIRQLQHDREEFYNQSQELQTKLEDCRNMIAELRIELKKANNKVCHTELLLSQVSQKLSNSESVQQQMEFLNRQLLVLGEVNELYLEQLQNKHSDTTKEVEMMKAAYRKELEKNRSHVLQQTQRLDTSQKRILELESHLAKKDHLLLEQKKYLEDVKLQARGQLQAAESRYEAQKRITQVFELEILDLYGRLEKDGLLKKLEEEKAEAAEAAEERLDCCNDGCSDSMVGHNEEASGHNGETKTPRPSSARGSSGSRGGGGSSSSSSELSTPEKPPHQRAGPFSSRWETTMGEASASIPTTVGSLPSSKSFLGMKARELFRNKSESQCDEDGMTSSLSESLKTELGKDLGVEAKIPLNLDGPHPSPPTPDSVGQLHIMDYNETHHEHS
B6: Mothers against decapentaplegic homolog 4 (Homo sapiens), Q13485 (parent)
chain: B1 chain
partner: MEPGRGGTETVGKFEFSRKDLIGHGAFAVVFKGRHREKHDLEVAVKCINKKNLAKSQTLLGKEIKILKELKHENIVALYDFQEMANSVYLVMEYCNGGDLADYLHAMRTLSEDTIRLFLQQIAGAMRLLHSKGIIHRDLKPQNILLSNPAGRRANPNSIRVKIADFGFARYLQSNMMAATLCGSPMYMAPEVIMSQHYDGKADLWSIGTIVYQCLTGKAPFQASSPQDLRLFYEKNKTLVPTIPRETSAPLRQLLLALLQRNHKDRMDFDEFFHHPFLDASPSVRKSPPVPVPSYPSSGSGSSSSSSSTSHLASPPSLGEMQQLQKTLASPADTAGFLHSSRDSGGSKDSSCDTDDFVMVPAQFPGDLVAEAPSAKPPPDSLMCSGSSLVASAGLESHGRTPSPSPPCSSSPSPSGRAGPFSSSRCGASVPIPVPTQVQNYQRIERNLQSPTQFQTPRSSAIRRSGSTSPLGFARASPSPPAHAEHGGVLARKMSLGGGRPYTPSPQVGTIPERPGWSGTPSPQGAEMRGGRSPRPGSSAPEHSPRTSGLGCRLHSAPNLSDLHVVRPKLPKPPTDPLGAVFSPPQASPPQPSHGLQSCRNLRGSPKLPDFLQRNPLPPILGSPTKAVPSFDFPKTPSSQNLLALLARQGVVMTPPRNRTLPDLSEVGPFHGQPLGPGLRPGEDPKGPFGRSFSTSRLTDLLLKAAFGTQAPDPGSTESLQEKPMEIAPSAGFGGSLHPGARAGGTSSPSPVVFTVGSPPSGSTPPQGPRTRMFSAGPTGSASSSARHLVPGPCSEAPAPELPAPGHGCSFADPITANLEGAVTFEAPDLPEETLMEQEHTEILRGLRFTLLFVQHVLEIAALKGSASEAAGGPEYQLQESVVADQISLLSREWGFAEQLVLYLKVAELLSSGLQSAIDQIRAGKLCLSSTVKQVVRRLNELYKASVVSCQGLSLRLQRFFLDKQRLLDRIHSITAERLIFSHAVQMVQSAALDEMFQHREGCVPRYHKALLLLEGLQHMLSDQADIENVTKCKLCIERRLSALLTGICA

In one experiment the parent is B1. The following applies: with cabl1_human CABLES1, Q8TDN4.
For G386D, the “effect of a mutation on the interaction” value is recorded as “with no effect”.

The next experiment covers variants of B2. The following applies: with fancf_human FANCF.
Take G386D: the “effect of a mutation on the interaction” value is given as “with no effect”.

Variants of B3 are the subject of another experiment. The following applies: with frs2_human FRS2, Q8WU20.
For R361C, the “effect of a mutation on the interaction” value is recorded as “with no effect”.

Variants of B3 are the subject of a further experiment. The following applies: with frs2_human FRS2, Q8WU20. The source holds these as a separate data set.
Turning to R361H, the “effect of a mutation on the interaction” value is “with no effect”.

The variants in a further experiment derive from B4. The following applies: with nbpf1_human NBPF1, Q3BBV0.
As to G386D, the “effect of a mutation on the interaction” value is “with no effect”.

The variants in the next experiment derive from B5. The following applies: with tsc1_human TSC1, Q92574.
For G386D, the “effect of a mutation on the interaction” value is on record as “with no effect”.

The variants in the next experiment derive from B5. The following applies: with tsc1_human TSC1, Q92574. The source holds these as a separate data set.
As for R361H, the “effect of a mutation on the interaction” value is recorded as “with no effect”.

The variants in another experiment derive from B5. The following applies: with tsc1_human TSC1, Q92574. The source holds these as a separate data set.
In the case of R361C, the “effect of a mutation on the interaction” value is recorded as “with no effect”.

Variants of B5 are the subject of a further experiment. The following applies: with tsc1_human TSC1, Q92574. This is another data set of the same source.
In the case of D351H, the “effect of a mutation on the interaction” value is recorded as “with no effect”.

In a further experiment the parent is B6. The following applies: with ulk1_human ULK1, O75385.
For the variant D351H, the “effect of a mutation on the interaction” value was “with no effect”.

In another experiment the parent is B6. The following applies: with ulk1_human ULK1, O75385. This is another data set of the same source.
Regarding R361C, the “effect of a mutation on the interaction” value is on record as “with no effect”.

Source of the values: IntAct's records for PubMed 35512704.
